The text below walks through data of patent publication US20220372160A1.

The experiment addresses recombinant mouse CD39 (mouse) (UniProt P55772). Put plainly: BLI, Duha59 amine-coupled to AR2G biosensor, recombinant mouse CD39 as analyte, 1:1 model.

Sequence of recombinant mouse CD39 (mouse) (P55772 38-478 limits assumed): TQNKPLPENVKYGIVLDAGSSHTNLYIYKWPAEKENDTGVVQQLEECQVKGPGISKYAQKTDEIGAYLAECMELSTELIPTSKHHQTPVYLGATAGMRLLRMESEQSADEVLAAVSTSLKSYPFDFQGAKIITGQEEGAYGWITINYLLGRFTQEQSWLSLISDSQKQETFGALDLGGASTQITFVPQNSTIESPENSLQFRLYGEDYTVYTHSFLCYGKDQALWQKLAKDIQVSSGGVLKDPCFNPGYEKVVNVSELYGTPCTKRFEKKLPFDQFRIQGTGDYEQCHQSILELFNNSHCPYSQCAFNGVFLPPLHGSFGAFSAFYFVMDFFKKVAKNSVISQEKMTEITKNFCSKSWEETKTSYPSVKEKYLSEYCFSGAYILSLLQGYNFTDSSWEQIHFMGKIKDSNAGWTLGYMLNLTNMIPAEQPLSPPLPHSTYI

Consider “rat anti-mouse CD39 Duha59 clone (antibody)”, for which the Kd is 1.09 nM.

A word on the Kd: it is the free concentration of one partner at which half of the binding sites on the other are occupied at equilibrium, for simple one-to-one binding.
